From patent publication US20110166062A1 (INDIANA UNIVERSITY RESEARCH AND TECHNOLOGY, published 2011) come the findings set out here.

Bridges are numbered along the chain shown (N, C = ends). Where no end group is shown, it is not given here.

What all share (test): cell-based or functional assay
Test [1] deals with glucagon receptor (UniProt P47871 26-477, limits assumed).
The target in test [2] is GLP-1 receptor (UniProt P43220 24-463, limits assumed).
Test [3] has as its target T1, GIP receptor (UniProt P48546 22-466).
T1 sequence (looked up): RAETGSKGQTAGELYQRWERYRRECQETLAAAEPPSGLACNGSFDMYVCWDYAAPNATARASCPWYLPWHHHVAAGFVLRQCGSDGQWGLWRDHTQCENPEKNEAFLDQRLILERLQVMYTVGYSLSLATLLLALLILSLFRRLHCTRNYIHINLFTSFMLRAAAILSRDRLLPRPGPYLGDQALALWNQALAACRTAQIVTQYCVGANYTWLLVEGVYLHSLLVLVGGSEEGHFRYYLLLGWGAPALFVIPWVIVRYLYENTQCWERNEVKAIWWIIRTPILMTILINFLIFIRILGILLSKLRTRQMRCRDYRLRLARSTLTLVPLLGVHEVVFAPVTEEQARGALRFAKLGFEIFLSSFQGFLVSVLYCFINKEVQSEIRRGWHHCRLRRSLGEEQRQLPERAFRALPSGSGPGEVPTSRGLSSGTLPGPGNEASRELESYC

glucagon receptor, sequence (P47871 26-477 limits assumed): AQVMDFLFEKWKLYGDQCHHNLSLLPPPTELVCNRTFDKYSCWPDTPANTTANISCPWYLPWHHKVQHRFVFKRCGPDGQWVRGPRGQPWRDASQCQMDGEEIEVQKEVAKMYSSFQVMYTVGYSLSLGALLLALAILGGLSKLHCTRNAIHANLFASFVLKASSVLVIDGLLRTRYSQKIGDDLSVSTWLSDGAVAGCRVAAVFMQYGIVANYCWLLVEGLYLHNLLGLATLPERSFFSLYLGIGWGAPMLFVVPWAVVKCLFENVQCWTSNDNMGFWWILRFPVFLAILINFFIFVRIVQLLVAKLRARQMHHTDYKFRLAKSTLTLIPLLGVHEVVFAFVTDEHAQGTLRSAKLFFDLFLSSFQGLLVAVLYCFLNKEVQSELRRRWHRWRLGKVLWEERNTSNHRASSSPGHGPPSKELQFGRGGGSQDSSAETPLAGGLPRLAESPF

B1: mt-129 (peptide)
peptide: YSQGTFTSDYSKYLDEIHQKDFIAWLMNGGPSSGAPPPS-NH2
modifications: lactam 16-20; N-terminus assumed
SMILES: CC[C@H](C)[C@H](NC(=O)[C@H](Cc1ccccc1)NC(=O)[C@H](CC(=O)O)NC(=O)[C@@H]1CCCCNC(=O)CC[C@H](NC(=O)[C@H](CC(=O)O)NC(=O)[C@H](CC(C)C)NC(=O)[C@H](Cc2ccc(O)cc2)NC(=O)[C@H](CCCCN)NC(=O)[C@H](CO)NC(=O)[C@H](Cc2ccc(O)cc2)NC(=O)[C@H](CC(=O)O)NC(=O)[C@H](CO)NC(=O)[C@@H](NC(=O)[C@H](Cc2ccccc2)NC(=O)[C@@H](NC(=O)CNC(=O)[C@H](CCC(N)=O)NC(=O)[C@H](CO)NC(=O)[C@@H](N)Cc2ccc(O)cc2)[C@@H](C)O)[C@@H](C)O)C(=O)N[C@@H]([C@@H](C)CC)C(=O)N[C@@H](Cc2c[nH]cn2)C(=O)N[C@@H](CCC(N)=O)C(=O)N1)C(=O)N[C@@H](C)C(=O)N[C@@H](Cc1c[nH]c2ccccc12)C(=O)N[C@@H](CC(C)C)C(=O)N[C@@H](CCSC)C(=O)N[C@@H](CC(N)=O)C(=O)NCC(=O)NCC(=O)N1CCC[C@H]1C(=O)N[C@@H](CO)C(=O)N[C@@H](CO)C(=O)NCC(=O)N[C@@H](C)C(=O)N1CCC[C@H]1C(=O)N1CCC[C@H]1C(=O)N1CCC[C@H]1C(=O)N[C@@H](CO)C(N)=O
In general, EC50 refers to the concentration giving half of the maximal effect. For the molecule B1, the concentration for a half-maximal effect (EC50) stood at 0.952 nM in test [1], 4.07 nM in test [2] and 2.88 nM in test [3]. The relative activity in test [1] was 17.3%; in test [2] it was 1.12%; in test [3], 2.06%.

B2: mt-125 (peptide)
peptide: YSQGTFTSDYSIYMDEIHQKDFVNWLLAQ-NH2
modifications: lactam 16-20; N-terminus assumed
SMILES: CC[C@H](C)[C@H](NC(=O)[C@H](CO)NC(=O)[C@H](Cc1ccc(O)cc1)NC(=O)[C@H](CC(=O)O)NC(=O)[C@H](CO)NC(=O)[C@@H](NC(=O)[C@H](Cc1ccccc1)NC(=O)[C@@H](NC(=O)CNC(=O)[C@H](CCC(N)=O)NC(=O)[C@H](CO)NC(=O)[C@@H](N)Cc1ccc(O)cc1)[C@@H](C)O)[C@@H](C)O)C(=O)N[C@@H](Cc1ccc(O)cc1)C(=O)N[C@@H](CCSC)C(=O)N[C@@H](CC(=O)O)C(=O)N[C@H]1CCC(=O)NCCCC[C@@H](C(=O)N[C@@H](CC(=O)O)C(=O)N[C@@H](Cc2ccccc2)C(=O)N[C@H](C(=O)N[C@@H](CC(N)=O)C(=O)N[C@@H](Cc2c[nH]c3ccccc23)C(=O)N[C@@H](CC(C)C)C(=O)N[C@@H](CC(C)C)C(=O)N[C@@H](C)C(=O)N[C@@H](CCC(N)=O)C(N)=O)C(C)C)NC(=O)[C@H](CCC(N)=O)NC(=O)[C@H](Cc2c[nH]cn2)NC(=O)[C@H]([C@@H](C)CC)NC1=O
As to B2, the “EC50” value in test [1] was 5.74 nM; in test [2], 1.26 nM; in test [3] it was 0.275 nM. Further, the relative activity was determined as 9.06% in test [1], 3.17% in test [2] and 19.6% in test [3].

B3: mt-124 (peptide)
peptide: HSQGTFTSDYSIYMDEIHQKDFVNWLLAQ-NH2
modifications: lactam 16-20; N-terminus assumed
SMILES: CC[C@H](C)[C@H](NC(=O)[C@H](CO)NC(=O)[C@H](Cc1ccc(O)cc1)NC(=O)[C@H](CC(=O)O)NC(=O)[C@H](CO)NC(=O)[C@@H](NC(=O)[C@H](Cc1ccccc1)NC(=O)[C@@H](NC(=O)CNC(=O)[C@H](CCC(N)=O)NC(=O)[C@H](CO)NC(=O)[C@@H](N)Cc1c[nH]cn1)[C@@H](C)O)[C@@H](C)O)C(=O)N[C@@H](Cc1ccc(O)cc1)C(=O)N[C@@H](CCSC)C(=O)N[C@@H](CC(=O)O)C(=O)N[C@H]1CCC(=O)NCCCC[C@@H](C(=O)N[C@@H](CC(=O)O)C(=O)N[C@@H](Cc2ccccc2)C(=O)N[C@H](C(=O)N[C@@H](CC(N)=O)C(=O)N[C@@H](Cc2c[nH]c3ccccc23)C(=O)N[C@@H](CC(C)C)C(=O)N[C@@H](CC(C)C)C(=O)N[C@@H](C)C(=O)N[C@@H](CCC(N)=O)C(N)=O)C(C)C)NC(=O)[C@H](CCC(N)=O)NC(=O)[C@H](Cc2c[nH]cn2)NC(=O)[C@H]([C@@H](C)CC)NC1=O
As for B3, the half-maximal effective concentration (EC50) in test [1] was determined as 2.43 nM; in test [2], 0.04 nM; in test [3] it was 5.79 nM. For the same molecule, the values for the relative activity in test [1], in test [2] and in test [3] were 8.64%, 100% and 0.95%, respectively.

B4: mt-120 (peptide)
peptide: YSQGTFTSDYSKYLDEQAAKEFIAWLMNGGPSSGAPPPS-NH2
modifications: lactam 16-20; N-terminus assumed
SMILES: CC[C@H](C)[C@H](NC(=O)[C@H](Cc1ccccc1)NC(=O)[C@H](CCC(=O)O)NC(=O)[C@@H]1CCCCNC(=O)CC[C@H](NC(=O)[C@H](CC(=O)O)NC(=O)[C@H](CC(C)C)NC(=O)[C@H](Cc2ccc(O)cc2)NC(=O)[C@H](CCCCN)NC(=O)[C@H](CO)NC(=O)[C@H](Cc2ccc(O)cc2)NC(=O)[C@H](CC(=O)O)NC(=O)[C@H](CO)NC(=O)[C@@H](NC(=O)[C@H](Cc2ccccc2)NC(=O)[C@@H](NC(=O)CNC(=O)[C@H](CCC(N)=O)NC(=O)[C@H](CO)NC(=O)[C@@H](N)Cc2ccc(O)cc2)[C@@H](C)O)[C@@H](C)O)C(=O)N[C@@H](CCC(N)=O)C(=O)N[C@@H](C)C(=O)N[C@@H](C)C(=O)N1)C(=O)N[C@@H](C)C(=O)N[C@@H](Cc1c[nH]c2ccccc12)C(=O)N[C@@H](CC(C)C)C(=O)N[C@@H](CCSC)C(=O)N[C@@H](CC(N)=O)C(=O)NCC(=O)NCC(=O)N1CCC[C@H]1C(=O)N[C@@H](CO)C(=O)N[C@@H](CO)C(=O)NCC(=O)N[C@@H](C)C(=O)N1CCC[C@H]1C(=O)N1CCC[C@H]1C(=O)N1CCC[C@H]1C(=O)N[C@@H](CO)C(N)=O
Turning to B4, the “EC50” value in test [1] amounted to 0.074 nM; in test [2] it was 0.399 nM; in test [3], 2.62 nM. Moreover, the relative activity in test [1] is 259%; in test [2], 13.4%; in test [3], 1.81%.

B5: mt-140 (peptide)
peptide: YSQGTFTSDYSIYLDEQAAKEFVNWLLAGGPSSGAPPPS-NH2
modifications: lactam 16-20; N-terminus assumed
SMILES: CC[C@H](C)[C@H](NC(=O)[C@H](CO)NC(=O)[C@H](Cc1ccc(O)cc1)NC(=O)[C@H](CC(=O)O)NC(=O)[C@H](CO)NC(=O)[C@@H](NC(=O)[C@H](Cc1ccccc1)NC(=O)[C@@H](NC(=O)CNC(=O)[C@H](CCC(N)=O)NC(=O)[C@H](CO)NC(=O)[C@@H](N)Cc1ccc(O)cc1)[C@@H](C)O)[C@@H](C)O)C(=O)N[C@@H](Cc1ccc(O)cc1)C(=O)N[C@@H](CC(C)C)C(=O)N[C@@H](CC(=O)O)C(=O)N[C@H]1CCC(=O)NCCCC[C@@H](C(=O)N[C@@H](CCC(=O)O)C(=O)N[C@@H](Cc2ccccc2)C(=O)N[C@H](C(=O)N[C@@H](CC(N)=O)C(=O)N[C@@H](Cc2c[nH]c3ccccc23)C(=O)N[C@@H](CC(C)C)C(=O)N[C@@H](CC(C)C)C(=O)N[C@@H](C)C(=O)NCC(=O)NCC(=O)N2CCC[C@H]2C(=O)N[C@@H](CO)C(=O)N[C@@H](CO)C(=O)NCC(=O)N[C@@H](C)C(=O)N2CCC[C@H]2C(=O)N2CCC[C@H]2C(=O)N2CCC[C@H]2C(=O)N[C@@H](CO)C(N)=O)C(C)C)NC(=O)[C@H](C)NC(=O)[C@H](C)NC(=O)[C@H](CCC(N)=O)NC1=O
As for B5, the “EC50” value in test [1] came to 0.149 nM; in test [2] it was 0.068 nM; in test [3] it was 0.366 nM. Moreover, the results for the relative activity in test [1], in test [2] and in test [3] were 131%, 49.6% and 12.8%, respectively.

B6: mt-128 (peptide)
peptide: HSQGTFTSDYSKYLDEIHQKDFIAWLMNGGPSSGAPPPS-NH2
modifications: lactam 16-20; N-terminus assumed
SMILES: CC[C@H](C)[C@H](NC(=O)[C@H](Cc1ccccc1)NC(=O)[C@H](CC(=O)O)NC(=O)[C@@H]1CCCCNC(=O)CC[C@H](NC(=O)[C@H](CC(=O)O)NC(=O)[C@H](CC(C)C)NC(=O)[C@H](Cc2ccc(O)cc2)NC(=O)[C@H](CCCCN)NC(=O)[C@H](CO)NC(=O)[C@H](Cc2ccc(O)cc2)NC(=O)[C@H](CC(=O)O)NC(=O)[C@H](CO)NC(=O)[C@@H](NC(=O)[C@H](Cc2ccccc2)NC(=O)[C@@H](NC(=O)CNC(=O)[C@H](CCC(N)=O)NC(=O)[C@H](CO)NC(=O)[C@@H](N)Cc2c[nH]cn2)[C@@H](C)O)[C@@H](C)O)C(=O)N[C@@H]([C@@H](C)CC)C(=O)N[C@@H](Cc2c[nH]cn2)C(=O)N[C@@H](CCC(N)=O)C(=O)N1)C(=O)N[C@@H](C)C(=O)N[C@@H](Cc1c[nH]c2ccccc12)C(=O)N[C@@H](CC(C)C)C(=O)N[C@@H](CCSC)C(=O)N[C@@H](CC(N)=O)C(=O)NCC(=O)NCC(=O)N1CCC[C@H]1C(=O)N[C@@H](CO)C(=O)N[C@@H](CO)C(=O)NCC(=O)N[C@@H](C)C(=O)N1CCC[C@H]1C(=O)N1CCC[C@H]1C(=O)N1CCC[C@H]1C(=O)N[C@@H](CO)C(N)=O
B6: the “EC50” value in test [1] worked out at 0.773 nM; in test [2], 0.12 nM; in test [3] it was 14.6 nM. Further, the relative activity in test [1] was found to be 11.1%; in test [2] it was 33.3%; in test [3] it was 0.42%.
